Reference: the supplement of paper PMC7877785
± gives the uncertainty stated by the source.

Test: self-splicing fitness, log relative to wild type (ln ratio); higher = more splicing; Tetrahymena group I intron in knt gene, E. coli kanamycin selection, DiMSum; sequences stand for … in CUCUCU…GGAGGGAAAAGUUAUCAGGCAUGCACCUGGUAGCUAGUCUUUAAACCAAUAGAUUGCAUCGGUUUAAAAGGCAAGACCGUCAAAUUGCGGGAAAGGGGUCAACAGCCGUUCAGUACCAAGUCUCAGGGGAAACUUUGAGAUGGCCUUGCAAAGGGUAUGGUAAUAAGCUGACGGACAUGGUCCUAACCACGCAGCCAAGUCCUAAGUCAACAGAUCUUCUGUUGAUAUGGAUGCAGUUCACAGACUAAAUGUCGGUCGGGGAAGAUGUAUUCUUCUCAUAAGAUAUAGUCGGACCUCUCCUUAAUGGGAGCUAGCGGAUGAAGUGAUGCAACACUGGAGCCGCUGGGAACUAAUUUGUAUGCGAAAGUAUAUUGAUUAGUUUUGGAGUACUCGUGGUCG
Summary of the method: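 Pooled colonies went to amplicon sequencing on an Illumina HiSeq 2500 after six replicate transformations. The plates were LB agar with 100 μg/mL carbenicillin, 50 μM IPTG and 0.2% rhamnose, with or without 25 μg/mL kanamycin, incubated overnight at 37°C or 30°C. The E. coli BL21(DE3) library had all eight P1ex-region intron nucleotides randomised, the intron placed in the knt kanamycin-resistance gene on pET-22b(+). DiMSum fitness is the error-weighted combination of replicate fold changes, kanamycin against none, normalised to wild type.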

Sequence | self-splicing fitness (ln) (30 °C) | self-splicing fitness (ln) (37 °C)
ACCAAGCAAUAUUACGCAGA | -2.84 ± 0.25 | -0.709 ± 0.14
AAAAAGCAAUAUUACGGUAA | -1.31 ± 0.12 | -0.53 ± 0.11
ACAAAGCAAUAUUACGACCU | 0.0994 ± 0.076 | 0.311 ± 0.091
GGCGAGCAAUAUUACGACAU | -0.665 ± 0.015 | -0.155 ± 0.034
CUUGAGCAAUAUUACGUAUG | -1.21 ± 0.1 | -1.35 ± 0.14
AACAAGCAAUAUUACGGUCC | -1.36 ± 0.063 | -0.282 ± 0.072
UAAGAGCAAUAUUACGGACG | -1.89 ± 0.2 | -1.67 ± 0.26
GCUAAGCAAUAUUACGUCCA | -1.94 ± 0.32 | -0.684 ± 0.23
UUCAAGCAAUAUUACGGCCG | -0.747 ± 0.14 | 0.0541 ± 0.16
CGUGAGCAAUAUUACGCGAC | -2.65 ± 0.35 | -2.21 ± 0.36
UGAUAGCAAUAUUACGACAU | -2.587 ± 0.02 | -1.26 ± 0.035
AAAAAGCAAUAUUACGAUGU | -0.893 ± 0.064 | -0.0506 ± 0.079
ACCCAGCAAUAUUACGAACA | -0.802 ± 0.11 | -1.35 ± 0.13
UGCCAGCAAUAUUACGCAUA | -1.67 ± 0.088 | -1.26 ± 0.087
AGGUAGCAAUAUUACGUUAC | -3.617 ± 0.033 | -2.85 ± 0.048
CUAAAGCAAUAUUACGUAUA | -3.23 ± 0.14 | -3.09 ± 0.28
AGCUAGCAAUAUUACGUUUC | -4.92 ± 0.25 | -2.56 ± 0.16
CUUCAGCAAUAUUACGCAGU | -3.96 ± 0.43 | -2.9 ± 0.33
GGUCAGCAAUAUUACGGGAG | -3.38 ± 0.22 | -1.45 ± 0.12

Sequence | self-splicing fitness (ln) (30 °C) | self-splicing fitness (ln) (37 °C)
GGCUAGCAAUAUUACGACCC | -1.79 ± 0.36 | -0.966 ± 0.37
UAUAAGCAAUAUUACGUGCA | -0.333 ± 0.085 | -0.0529 ± 0.1
UAUCAGCAAUAUUACGCAUU | -1.42 ± 0.076 | -0.197 ± 0.09
GAUAAGCAAUAUUACGGCUA | -0.974 ± 0.12 | 0.143 ± 0.15
CUACAGCAAUAUUACGUUCU | -2.56 ± 0.12 | -2.42 ± 0.2
CAACAGCAAUAUUACGUCUG | -1.89 ± 0.062 | -1.38 ± 0.063
UCAGAGCAAUAUUACGCGAC | -3.71 ± 0.42 | 
GUUCAGCAAUAUUACGACAG | -3.33 ± 0.35 | -1.76 ± 0.42
GUUCAGCAAUAUUACGGGUA | -2.23 ± 0.12 | -0.474 ± 0.097
CUUUAGCAAUAUUACGUGAG | -1.07 ± 0.11 | -0.581 ± 0.14
UCACAGCAAUAUUACGUACA | -1.53 ± 0.076 | -0.549 ± 0.075
CGACAGCAAUAUUACGCUAG | -3.79 ± 0.25 | -2.04 ± 0.16
AUAUAGCAAUAUUACGACGU | 0.51 ± 0.13 | 0.433 ± 0.17
UAUCAGCAAUAUUACGAGAC | -2.38 ± 0.33 | -1.75 ± 0.44
ACUUAGCAAUAUUACGGUUA | -1.27 ± 0.17 | -0.752 ± 0.15
UUUGAGCAAUAUUACGGCCG | -2.02 ± 0.35 | 
GAAUAGCAAUAUUACGCCUA | -0.724 ± 0.13 | -0.0436 ± 0.16
AUGGAGCAAUAUUACGGACA | -3.23 ± 0.43 | -1.91 ± 0.2
CUAUAGCAAUAUUACGUAGA | -3.52 ± 0.33 | -1.87 ± 0.34
